Test results reported in patent publication US20250101111A1 (ARGENX, published 2025).

T1: human FcγRIIa on THP-1 cells (human, UniProt P12318 34-317)
T1 sequence (looked up): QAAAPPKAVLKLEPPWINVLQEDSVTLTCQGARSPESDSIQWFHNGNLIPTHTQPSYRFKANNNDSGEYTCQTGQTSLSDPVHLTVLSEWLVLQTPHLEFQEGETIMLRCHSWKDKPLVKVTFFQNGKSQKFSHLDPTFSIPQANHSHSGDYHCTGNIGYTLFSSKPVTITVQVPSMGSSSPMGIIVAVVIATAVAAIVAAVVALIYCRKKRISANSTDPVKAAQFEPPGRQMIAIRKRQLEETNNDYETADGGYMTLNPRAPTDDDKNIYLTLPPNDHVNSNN

B1: Fc-ΔG236 (other)
chain: DKTHTCPPCPAPELLGPSVFLFPPKPKDTLMISRTPEVTCVVVDVSHEDPEVKFNWYVDGVEVHNAKTKPREEQYNSTYRVVSVLTVLHQDWLNGKEYKCKVSNKALPAPIEKTISKAKGQPREPQVYTLPPSRDELTKNQVSLTCLVKGFYPSDIAVEWESNGQPENNYKTTPPVLDSDGSFFLYSKLTVDKSRWQQGNVFSCSVMHEALHNHYTQKSLSLSPGK
B2: Fc-ΔG236-MST-HN (other)
chain: DKTHTCPPCPAPELLGPSVFLFPPKPKDTLYITREPEVTCVVVDVSHEDPEVKFNWYVDGVEVHNAKTKPREEQYNSTYRVVSVLTVLHQDWLNGKEYKCKVSNKALPAPIEKTISKAKGQPREPQVYTLPPSRDELTKNQVSLTCLVKGFYPSDIAVEWESNGQPENNYKTTPPVLDSDGSFFLYSKLTVDKSRWQQGNVFSCSVMHEALKFHYTQKSLSLSPGK
B3: Fc-G236A-MST-HN (other, human, UniProt P01857-1 104-330, looked up)
chain: DKTHTCPPCPAPELLAGPSVFLFPPKPKDTLYITREPEVTCVVVDVSHEDPEVKFNWYVDGVEVHNAKTKPREEQYNSTYRVVSVLTVLHQDWLNGKEYKCKVSNKALPAPIEKTISKAKGQPREPQVYTLPPSRDELTKNQVSLTCLVKGFYPSDIAVEWESNGQPENNYKTTPPVLDSDGSFFLYSKLTVDKSRWQQGNVFSCSVMHEALKFHYTQKSLSLSPGK
notes: domain: Fc fragment; EU numbering
B4: human FcγRIIa-131H (receptor, UniProt P12318 34-218, looked up)
chain: QAAAPPKAVLKLEPPWINVLQEDSVTLTCQGARSPESDSIQWFHNGNLIPTHTQPSYRFKANNNDSGEYTCQTGQTSLSDPVHLTVLSEWLVLQTPHLEFQEGETIMLRCHSWKDKPLVKVTFFQNGKSQKFSHLDPTFSIPQANHSHSGDYHCTGNIGYTLFSSKPVTITVQVPSMGSSSPMGI
modifications: C-terminal biotin
notes: Bought, C-terminally biotinylated; captured on a streptavidin sensor
B5: human FcγRIIIb-NA2 (receptor, UniProt O75015 17-200, looked up)
chain: GMRTEDLPKAVVFLEPQWYSVLEKDSVTLKCQGAYSPEDNSTQWFHNESLISSQASSYFIDAATVNDSGEYRCQTNLSTLSDPVQLEVHIGWLLLQAPRWVFKEEDPIHLRCHSWKNTALHKVTYLQNGKDRKYFHHNSDFHIPKATLKDSGSYFCRGLVGSKNVSSETVNITITQGLAVSTIS
modifications: C-terminal biotin
notes: In-house, C-terminally biotinylated; captured on a streptavidin sensor; also called hFcγRIIIb-NA2
B6: human FcγRIIb (receptor, UniProt P31994 43-217, looked up)
chain: TPAAPPKAVLKLEPQWINVLQEDSVTLTCRGTHSPESDSIQWFHNGNLIPTHTQPSYRFKANNNDSGEYTCQTGQTSLSDPVHLTVLSEWLVLQTPHLEFQEGETIVLRCHSWKDKPLVKVTFFQNGKSKKFSRSDPNFSIPQANHSHSGDYHCTGNIGYTLYSSKPVTITVQAP
modifications: C-terminal biotin
notes: Bought, C-terminally biotinylated; captured on a streptavidin sensor; also called hFcγRIIb
B7: human FcγRIIIb-NA1 (receptor, UniProt O75015 17-200, looked up)
chain: GMRTEDLPKAVVFLEPQWYRVLEKDSVTLKCQGAYSPEDNSTQWFHNENLISSQASSYFIDAATVDDSGEYRCQTNLSTLSDPVQLEVHVGWLLLQAPRWVFKEEDPIHLRCHSWKNTALHKVTYLQNGKDRKYFHHNSDFHIPKATLKDSGSYFCRGLVGSKNVSSETVNITITQGLAVSTIS
modifications: C-terminal biotin
notes: In-house, C-terminally biotinylated; captured on a streptavidin sensor; also called hFcγRIIIb-NA1
B8: Fc-MST-HN (other, human, UniProt P01857-1 104-330, looked up)
chain: DKTHTCPPCPAPELLGGPSVFLFPPKPKDTLYITREPEVTCVVVDVSHEDPEVKFNWYVDGVEVHNAKTKPREEQYNSTYRVVSVLTVLHQDWLNGKEYKCKVSNKALPAPIEKTISKAKGQPREPQVYTLPPSRDELTKNQVSLTCLVKGFYPSDIAVEWESNGQPENNYKTTPPVLDSDGSFFLYSKLTVDKSRWQQGNVFSCSVMHEALKFHYTQKSLSLSPGK
notes: domain: Fc fragment; MST-HN = M252Y S254T T256E H433K N434F (EU numbering); also called IgG1-Fc MST-HN
B9: human FcγRIIa-131R (receptor, UniProt P12318 34-218, looked up)
chain: QAAAPPKAVLKLEPPWINVLQEDSVTLTCQGARSPESDSIQWFHNGNLIPTHTQPSYRFKANNNDSGEYTCQTGQTSLSDPVHLTVLSEWLVLQTPHLEFQEGETIMLRCHSWKDKPLVKVTFFQNGKSQKFSRLDPTFSIPQANHSHSGDYHCTGNIGYTLFSSKPVTITVQVPSMGSSSPMGI
modifications: C-terminal biotin
notes: as for B4

Experiments:
[1] = target: T2, soluble human FcRn (human, UniProt P55899 24-297; P61769 21-119); test: SPR (IBIS MX96), Fc fragment immobilised, soluble FcRn titrated, pH 6.0, equilibrium 1:1 fit
T2 construct: Made in HEK293F cells from two vectors; also called sFcRn; not shown: C-terminal BirA deca-His-tag
Experimental: (§1) Regeneration of the sensor surface between the cycles was performed by injection of 10 mM Gly-HCl pH 2.4. Affinity calculations were carried out by performing an equilibrium analysis interpolating to an Rmax of 200 to 600, depending on the assay, and fitting a 1:1 Langmuir binding model, assuming equilibrium to be reached after 360s of IgG-Fc containing analyte injections. Analysis and calculations were performed using Scrubber Software Version 2 (BioLogic Software), Excel (Microsoft) and Graphpad Prism (Prism).
(§2) Sensorgrams of a representative of three independent affinity measurements were used to determine the binding of the human IgG1-Fc variants to human FcγRs and human FcRn at pH 7.4 and pH 6.0. […] KD values were derived by performing an equilibrium analysis and fitting a 1:1 Langmuir binding model. […] No binding was marked as non-determinable (n.d.). Data are presented in Tables S1-S4 as mean±standard deviation.

[2] = target: T2, soluble human FcRn; test: SPR (IBIS MX96), Fc fragment immobilised, soluble FcRn titrated, pH 7.4, equilibrium 1:1 fit
Experimental: as §1, §2

[3] = target: human FcRn, endogenous, in THP-1 cells and blood monocytes (human, UniProt P55899 24-365; P61769 21-119); test: cell-based or functional assay
[4] = target: T1, human FcγRIIa on THP-1 cells; test: cell-based or functional assay
[5] = target: B9; test: SPR, Fc fragments on captured FcγRs, pH 7.4
Experimental: as §1, with “The sensor surface was regenerated between the cycles by subsequent injections of 20 mM Tris-HCl, 150 mM NaCl pH 8.8 and 20 mM H₃PO₄ pH 2.4. […] Regeneration” for “Regeneration”

[6] = target: B4; test: SPR, Fc fragments on captured FcγRs, pH 7.4
Experimental: as §1, with “The sensor surface was regenerated between the cycles by subsequent injections of 20 mM Tris-HCl, 150 mM NaCl pH 8.8 and 20 mM H₃PO₄ pH 2.4. […] Regeneration” for “Regeneration”

[7] = target: T3, human FcγRIa (human, UniProt P12314 16-288); test: SPR (IBIS MX96), FcγR captured on sensor, Fc fragment titrated, pH 7.4, equilibrium 1:1 fit
T3 construct: Bought, C-terminally His-tagged; captured on the sensor by biotinylated anti-His mIgG1; also called hFcγRIa; not shown: C-terminal His tag
Experimental: as §1, with “The sensor surface was regenerated between the cycles by subsequent injections of 20 mM Tris-HCl, 150 mM NaCl pH 8.8 and 20 mM H₃PO₄ pH 2.4. […] Regeneration” for “Regeneration”

[8] = target: B3; test: as above
Experimental: as §1, with “The sensor surface was regenerated between the cycles by subsequent injections of 20 mM Tris-HCl, 150 mM NaCl pH 8.8 and 20 mM H₃PO₄ pH 2.4. […] Regeneration” for “Regeneration”

[9] = target: T4, Fc-G236A (human, UniProt P01857-1 104-330 = IgG part, G236A); test: as above
T4 construct: domain: Fc fragment; Positions in EU numbering; also called IgG1-Fc G236A
Experimental: as §1, with “The sensor surface was regenerated between the cycles by subsequent injections of 20 mM Tris-HCl, 150 mM NaCl pH 8.8 and 20 mM H₃PO₄ pH 2.4. […] Regeneration” for “Regeneration”

[10] = target: B8; test: as above
Experimental: as §1, with “The sensor surface was regenerated between the cycles by subsequent injections of 20 mM Tris-HCl, 150 mM NaCl pH 8.8 and 20 mM H₃PO₄ pH 2.4. […] Regeneration” for “Regeneration”

[11] = target: T5, Fc-IHH (human, UniProt P01857-1 104-330 = IgG part, I253A; H310A; H435A); test: as above
T5 construct: domain: Fc fragment; IHH = I253A H310A H435A (EU numbering); also called IgG1-Fc-IHH
Experimental: as §1, with “The sensor surface was regenerated between the cycles by subsequent injections of 20 mM Tris-HCl, 150 mM NaCl pH 8.8 and 20 mM H₃PO₄ pH 2.4. […] Regeneration” for “Regeneration”

[12] = target: T6, Fc-WT (human, UniProt P01857-1 104-330 = IgG part, limits assumed); test: as above
T6 construct: domain: Fc fragment; Fc-only fragment made by Evitria; also called IgG1-Fc wild-type; human IgG1-Fc fragment WT
Experimental: as §1, with “The sensor surface was regenerated between the cycles by subsequent injections of 20 mM Tris-HCl, 150 mM NaCl pH 8.8 and 20 mM H₃PO₄ pH 2.4. […] Regeneration” for “Regeneration”

[13] = target: B7; test: SPR, Fc fragments on captured FcγRs, pH 7.4
Experimental: as §1, with “The sensor surface was regenerated between the cycles by subsequent injections of 20 mM Tris-HCl, 150 mM NaCl pH 8.8 and 20 mM H₃PO₄ pH 2.4. […] Regeneration” for “Regeneration”

[14] = target: T7, human FcγRIIIa-158V (human, UniProt P08637 17-208, C-terminal biotin); test: SPR, Fc fragments on captured FcγRs, pH 7.4
T7 construct: Bought, C-terminally biotinylated; captured on a streptavidin sensor; also called hFcγRIIIa-158V
Experimental: as §1, with “The sensor surface was regenerated between the cycles by subsequent injections of 20 mM Tris-HCl, 150 mM NaCl pH 8.8 and 20 mM H₃PO₄ pH 2.4. […] Regeneration” for “Regeneration”

[15] = target: B5; test: SPR, Fc fragments on captured FcγRs, pH 7.4
Experimental: as §1, with “The sensor surface was regenerated between the cycles by subsequent injections of 20 mM Tris-HCl, 150 mM NaCl pH 8.8 and 20 mM H₃PO₄ pH 2.4. […] Regeneration” for “Regeneration”

[16] = target: T8, human FcγRIIIa-158F (human, UniProt P08637 17-208, C-terminal biotin); test: SPR, Fc fragments on captured FcγRs, pH 7.4
T8 construct: Bought, C-terminally biotinylated; captured on a streptavidin sensor; also called hFcγRIIIa-158F
Experimental: as §1, with “The sensor surface was regenerated between the cycles by subsequent injections of 20 mM Tris-HCl, 150 mM NaCl pH 8.8 and 20 mM H₃PO₄ pH 2.4. […] Regeneration” for “Regeneration”

T2 sequence (P55899 24-297, chain 1 of 2): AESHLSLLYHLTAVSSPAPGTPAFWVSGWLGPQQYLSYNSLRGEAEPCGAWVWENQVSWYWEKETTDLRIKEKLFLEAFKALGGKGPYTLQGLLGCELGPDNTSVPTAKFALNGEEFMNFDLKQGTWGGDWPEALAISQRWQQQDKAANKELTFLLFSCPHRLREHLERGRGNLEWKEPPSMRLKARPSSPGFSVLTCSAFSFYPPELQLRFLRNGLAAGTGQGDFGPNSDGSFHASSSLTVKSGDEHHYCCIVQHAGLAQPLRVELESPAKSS
T2 sequence (P61769 21-119, chain 2 of 2): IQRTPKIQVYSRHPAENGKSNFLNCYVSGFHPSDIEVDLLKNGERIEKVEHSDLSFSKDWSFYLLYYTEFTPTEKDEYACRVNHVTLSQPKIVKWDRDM
T3 sequence (P12314 16-288 limits assumed): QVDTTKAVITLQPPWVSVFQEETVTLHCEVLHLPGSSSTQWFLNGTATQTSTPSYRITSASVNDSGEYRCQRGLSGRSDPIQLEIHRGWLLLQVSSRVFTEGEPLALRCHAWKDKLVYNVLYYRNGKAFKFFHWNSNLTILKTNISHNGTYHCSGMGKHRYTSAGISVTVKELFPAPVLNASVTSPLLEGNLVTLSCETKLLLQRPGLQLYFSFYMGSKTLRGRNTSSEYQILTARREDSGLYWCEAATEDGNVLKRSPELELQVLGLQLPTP
human FcRn, endogenous, in THP-1 cells and blood monocytes, sequence (P55899 24-365 limits assumed, chain 1 of 2): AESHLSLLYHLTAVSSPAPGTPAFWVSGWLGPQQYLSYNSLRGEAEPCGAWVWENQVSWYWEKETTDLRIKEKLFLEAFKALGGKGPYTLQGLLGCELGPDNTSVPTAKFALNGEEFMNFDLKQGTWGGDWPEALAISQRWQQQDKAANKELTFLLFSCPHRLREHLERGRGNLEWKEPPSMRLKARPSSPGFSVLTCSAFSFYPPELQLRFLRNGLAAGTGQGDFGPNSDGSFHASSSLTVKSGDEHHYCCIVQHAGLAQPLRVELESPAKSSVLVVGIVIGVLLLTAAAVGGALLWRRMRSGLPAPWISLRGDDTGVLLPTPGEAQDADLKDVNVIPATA
human FcRn, endogenous, in THP-1 cells and blood monocytes, sequence (P61769 21-119 limits assumed, chain 2 of 2): as the sequence (P61769 21-119, chain 2 of 2) above

Binder	Kd [1] [nM]	Kd [2] [nM]	Kd [8] [nM]	Kd [9] [nM]	Kd [10] [nM]	Kd [11] [nM]	further results
B1	130	–	–	–	–	–	–
B2	15.4	1420	–	–	–	–	–
B3	23.4	1340	–	–	–	–	Fold-intensity of intracellular accumulation compared to Fc-WT (Image Stream, THP-1 cells) [3]: 1.87 fold of Fc-WT; Fold-intensity of intracellular accumulation compared to Fc-WT (Image Stream, THP-1 cells) [4]: 1.87 fold of Fc-WT; fold increase in affinity compared to Fc-MST-HN [5]: ~6 fold; fold increase in binding compared to Fc-WT [5]: 2 fold; fold increase in affinity compared to Fc-MST-HN [6]: ~9 fold; fold increase in binding compared to Fc-WT [6]: 2 fold; Kd [7]: 10.8 nM
B4	–	–	189	91.1	1650	> 2000	–
B5	–	–	> 2000	> 2000	> 2000	> 2000	Kd [12]: > 2000 nM
B6	–	–	> 2000	> 2000	> 2000	> 2000	–
B7	–	–	> 2000	> 2000	> 2000	> 2000	Kd [12]: > 2000 nM
B8	18.9	1410	–	–	–	–	fold reduction in binding compared to Fc-WT [5]: ≥ 3 fold; fold reduction in binding compared to Fc-WT [13]: ≥ 3 fold; fold reduction in binding compared to Fc-WT [14]: ≥ 3 fold; fold reduction in binding compared to Fc-WT [15]: ≥ 3 fold; fold reduction in binding compared to Fc-WT [16]: ≥ 3 fold; fold reduction in binding compared to Fc-WT [6]: ≥ 3 fold; Kd [7]: 5.9 nM
B9	–	–	269	166	1640	> 2000	–
